These are literature values, as cited in article PMC5040959.

By pKa is commonly meant the pH at which an ionisable group is half protonated.

For this series, the target named is Glu286 (UniProt position 286, FFGHPEVYIIV). Nature of the series: kinetics. To be noted: fully reduced CytcO reacting with O2, F -> O step.

As to “Cytochrome c oxidase (cytochrome aa3), subunit I (Rhodobacter sphaeroides)”, the pKa is about 9.
